# In patent US20230052680A1:
# pKd: −log10 of the molar value.
# Biological target: human FGFR2b (beta)-Fc (human) (UniProt P21802)
# Assay: surface plasmon resonance (Biacore T200), hFGFR2b-Fc amine-coupled to a CM5 chip, antibody injected
substance,measurement,value
FPA144 (antibody),pKd,9.12
same,koff,7.77e-05 s⁻¹
same,kon,104000 M⁻¹ s⁻¹
